These results are taken from patent US20230013244A1 (BioIncept, LLC, priority 2014, published 2023).

Assay [1] has as its target Glucosidase 2 subunit beta (human) (UniProt P14314). Kind of assay: PIF affinity column + LC-MS/MS, CD4+ cell lysate.
For assay [2], the target named is Isoform 2 of Heat shock protein HSP 90-alpha (human) (UniProt P07900). Briefly: PIF affinity column + LC-MS/MS, CD4+ cell lysate.

Sequence of Glucosidase 2 subunit beta (human) (P14314 other isoform, or with tags, fused parts or gaps limits assumed): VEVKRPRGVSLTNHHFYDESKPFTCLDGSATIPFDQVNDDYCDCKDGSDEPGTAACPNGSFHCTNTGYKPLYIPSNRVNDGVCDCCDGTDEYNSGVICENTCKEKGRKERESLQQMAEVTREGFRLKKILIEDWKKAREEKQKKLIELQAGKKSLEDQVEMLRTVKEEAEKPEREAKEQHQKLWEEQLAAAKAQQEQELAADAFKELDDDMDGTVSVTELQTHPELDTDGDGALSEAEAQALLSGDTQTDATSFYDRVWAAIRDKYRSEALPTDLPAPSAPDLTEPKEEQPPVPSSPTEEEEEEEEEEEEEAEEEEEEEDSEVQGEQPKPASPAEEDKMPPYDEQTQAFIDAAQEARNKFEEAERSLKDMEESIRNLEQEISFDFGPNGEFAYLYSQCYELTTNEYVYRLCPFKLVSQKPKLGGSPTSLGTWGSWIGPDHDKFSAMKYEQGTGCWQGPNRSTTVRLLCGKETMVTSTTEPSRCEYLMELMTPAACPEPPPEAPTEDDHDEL

Take “PIF-resin (PIF15 affinity ligand on agarose) (peptide)”: in assay [1], the Ave was found to be 1, the Inject 1 came out at 1, the Inject 2 stood at 1 and the Inject 3 was determined as 1. Moreover, in assay [2], the Ave worked out at 4, the Inject 1 worked out at 4, the Inject 2 was determined as 4 and the Inject 3 worked out at 4.
